Assay results reported in patent US8853149.

B1: cyclic III peptide 3 (KLKLK-T1-MVVSA-T1) (peptide)
peptide: KLKLKMVVSA
modifications: here or on the partner: head-to-tail cyclic; two T1 linkers (NH2CH2CH2N(SO2Me)CH2COOH) join the strands
B2: cyclic III peptide 4 (KLKLK-T1-MVVAW-T1) (peptide)
peptide: KLKLKMVVAW
modifications: here or on the partner: head-to-tail cyclic; two T1 linkers (NH2CH2CH2N(SO2Me)CH2COOH) join the strands
B3: cyclic III peptide 5 (KLKLK-T1-MVASW-T1) (peptide)
peptide: KLKLKMVASW
modifications: here or on the partner: head-to-tail cyclic; two T1 linkers (NH2CH2CH2N(SO2Me)CH2COOH) join the strands
B4: cyclic III peptide 6 (KLKLK-T1-MAVSW-T1) (peptide)
peptide: KLKLKMAVSW
modifications: here or on the partner: head-to-tail cyclic; two T1 linkers (NH2CH2CH2N(SO2Me)CH2COOH) join the strands
B5: cyclic III peptide 7 (KLKLK-T1-AVVSW-T1) (peptide)
peptide: KLKLKAVVSW
modifications: here or on the partner: head-to-tail cyclic; two T1 linkers (NH2CH2CH2N(SO2Me)CH2COOH) join the strands

target: integrins; assay: cell-based or functional assay

Row | Binder | IC50 (µM), bioactivity of cyclic III peptide analogs [µM]
1 | B1 | 57
2 | B2 | 4
3 | B3 | 19
4 | B4 | 6
5 | B5 | 31
